Tested on: Indicator molecule containing the cleavable sequence GPQGIFGQ with a terminal biotin group connected via a polyethylene glycol spacer/linker (intact)

Sequence of Active MMP-9 (Alere San Diego) (chain, as listed by the source): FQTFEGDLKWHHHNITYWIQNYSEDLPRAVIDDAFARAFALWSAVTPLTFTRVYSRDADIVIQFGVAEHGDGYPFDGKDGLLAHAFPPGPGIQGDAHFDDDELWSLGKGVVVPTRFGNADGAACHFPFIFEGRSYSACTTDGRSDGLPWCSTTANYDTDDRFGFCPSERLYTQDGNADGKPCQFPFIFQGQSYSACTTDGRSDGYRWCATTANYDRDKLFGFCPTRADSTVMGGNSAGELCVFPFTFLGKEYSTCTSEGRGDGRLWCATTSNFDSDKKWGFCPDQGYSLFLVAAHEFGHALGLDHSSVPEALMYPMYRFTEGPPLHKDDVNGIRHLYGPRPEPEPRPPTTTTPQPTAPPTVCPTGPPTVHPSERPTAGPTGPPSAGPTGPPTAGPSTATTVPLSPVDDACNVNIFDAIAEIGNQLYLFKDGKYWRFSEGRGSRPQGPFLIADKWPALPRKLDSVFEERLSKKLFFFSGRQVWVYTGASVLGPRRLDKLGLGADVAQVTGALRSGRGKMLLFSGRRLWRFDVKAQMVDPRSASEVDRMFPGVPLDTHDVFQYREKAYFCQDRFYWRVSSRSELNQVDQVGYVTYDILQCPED
Sequence of MMP 8 (Enzo) (chain, as listed by the source): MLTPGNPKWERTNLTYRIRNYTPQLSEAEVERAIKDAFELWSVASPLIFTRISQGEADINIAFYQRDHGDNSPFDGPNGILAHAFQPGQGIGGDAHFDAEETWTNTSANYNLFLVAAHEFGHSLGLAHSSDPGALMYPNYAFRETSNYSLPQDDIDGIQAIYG
Sequence of MMP 9 (Enzo) (chain, as listed by the source): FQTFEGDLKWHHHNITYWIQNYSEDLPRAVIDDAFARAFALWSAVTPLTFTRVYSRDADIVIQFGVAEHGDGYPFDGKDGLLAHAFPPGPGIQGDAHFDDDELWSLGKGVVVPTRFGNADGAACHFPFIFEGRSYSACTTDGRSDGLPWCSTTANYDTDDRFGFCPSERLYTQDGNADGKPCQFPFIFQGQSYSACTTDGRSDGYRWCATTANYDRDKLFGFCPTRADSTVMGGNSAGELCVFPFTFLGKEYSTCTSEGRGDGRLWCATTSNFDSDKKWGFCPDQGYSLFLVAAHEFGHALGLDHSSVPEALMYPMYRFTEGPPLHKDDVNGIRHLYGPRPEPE
Sequence of MMP 3 (Enzo) (chain, as listed by the source): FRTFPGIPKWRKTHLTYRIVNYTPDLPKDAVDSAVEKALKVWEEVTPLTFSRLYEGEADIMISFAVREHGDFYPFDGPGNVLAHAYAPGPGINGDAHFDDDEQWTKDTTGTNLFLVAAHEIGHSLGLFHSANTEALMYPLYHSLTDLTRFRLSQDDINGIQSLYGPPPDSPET
Sequence of MMP 10 (Enzo) (chain, as listed by the source): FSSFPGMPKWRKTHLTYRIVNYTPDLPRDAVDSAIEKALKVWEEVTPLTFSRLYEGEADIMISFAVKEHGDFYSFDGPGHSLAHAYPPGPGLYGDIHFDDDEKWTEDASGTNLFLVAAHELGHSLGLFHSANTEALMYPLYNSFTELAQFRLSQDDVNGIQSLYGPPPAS
Sequence of MMP 2 (Enzo) (chain, as listed by the source): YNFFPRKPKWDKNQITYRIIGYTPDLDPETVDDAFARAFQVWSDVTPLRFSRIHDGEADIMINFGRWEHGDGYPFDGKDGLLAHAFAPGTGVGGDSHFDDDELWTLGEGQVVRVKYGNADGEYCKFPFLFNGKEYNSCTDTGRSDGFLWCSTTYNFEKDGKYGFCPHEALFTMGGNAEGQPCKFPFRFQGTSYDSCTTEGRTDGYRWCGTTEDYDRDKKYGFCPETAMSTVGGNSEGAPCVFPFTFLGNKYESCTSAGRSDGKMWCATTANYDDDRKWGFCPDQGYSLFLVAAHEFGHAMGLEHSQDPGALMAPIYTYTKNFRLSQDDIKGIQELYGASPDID

MMP 2 (Enzo)
Reader value (lateral flow, CF1522 gold) at 0.5 µg/ml MMP: 1610 reader units

Active MMP-9 (Alere San Diego)
OD405 (streptavidin plate ELISA with CF1522-AP) at 0.39 ng/ml MMP9: 0.14 OD405
OD405 (streptavidin plate ELISA with CF1522-AP) at 0.78 ng/ml MMP9: 0.14 OD405
OD405 (streptavidin plate ELISA with CF1522-AP) at 1.56 ng/ml MMP9: 0.14 OD405
OD405 (streptavidin plate ELISA with CF1522-AP) at 3.13 ng/ml MMP9: 0.13 OD405
OD405 (streptavidin plate ELISA with CF1522-AP) at 6.25 ng/ml MMP9: 0.17 OD405
OD405 (streptavidin plate ELISA with CF1522-AP) at 12.50 ng/ml MMP9: 0.18 OD405
OD405 (streptavidin plate ELISA with CF1522-AP) at 25.00 ng/ml MMP9: 0.27 OD405
OD405 (streptavidin plate ELISA with CF1522-AP) at 50.00 ng/ml MMP9: 0.5 OD405
detectable limit for MMP-9 (lateral flow, sample volume of 75 µl): approximately 4 ng/ml
reader value (lateral flow, CF1522 gold) at 0.9765625 ng/ml MMP9: 338 reader units
reader value (lateral flow, CF1522 gold) at 1.953125 ng/ml MMP9: 343 reader units
reader value (lateral flow, CF1522 gold) at 3.90625 ng/ml MMP9: 413 reader units
reader value (lateral flow, CF1522 gold) at 7.8125 ng/ml MMP9: 524 reader units
reader value (lateral flow, CF1522 gold) at 15.625 ng/ml MMP9: 882 reader units
reader value (lateral flow, CF1522 gold) at 31.25 ng/ml MMP9: 2030 reader units
reader value (lateral flow, CF1522 gold) at 62.5 ng/ml MMP9: 3830 reader units
reader value (lateral flow, CF1522 gold) at 125 ng/ml MMP9: 5580 reader units
reader value (lateral flow, CF1522 gold) at 250 ng/ml MMP9: 6220 reader units
reader value (lateral flow, CF1522 gold) at 500 ng/ml MMP9: 6730 reader units
reader value (lateral flow, CF1522 gold) at 1000 ng/ml MMP9: 6770 reader units
sensitivity of the MMP9 standard curves (ELISA and Lateral Flow): sensitivity down to 4 ng/ml

MMP 3 (Enzo)
Reader value (lateral flow, CF1522 gold) at 0.5 µg/ml MMP: 336 reader units

MMP 9 (Enzo)
Reader value (lateral flow, CF1522 gold) at 0.5 µg/ml MMP: 3840 reader units

MMP 8 (Enzo)
Reader value (lateral flow, CF1522 gold) at 0.5 µg/ml MMP: 1140 reader units

MMP 10 (Enzo)
Reader value (lateral flow, CF1522 gold) at 0.5 µg/ml MMP: 444 reader units

— patent US20160238596
